In patent publication US20110206694A1 (UNIVERSITY OF TENNESSEE RESEARCH FOUNDATION, published 2011):

Molecular target: labeled control protein (BSA) (UniProt P02769 25-607)
Test: membrane-immobilized flagellin bait, biotinylated prey, streptavidin-HRP

Sequence of labeled control protein (BSA) (P02769 25-607 limits assumed): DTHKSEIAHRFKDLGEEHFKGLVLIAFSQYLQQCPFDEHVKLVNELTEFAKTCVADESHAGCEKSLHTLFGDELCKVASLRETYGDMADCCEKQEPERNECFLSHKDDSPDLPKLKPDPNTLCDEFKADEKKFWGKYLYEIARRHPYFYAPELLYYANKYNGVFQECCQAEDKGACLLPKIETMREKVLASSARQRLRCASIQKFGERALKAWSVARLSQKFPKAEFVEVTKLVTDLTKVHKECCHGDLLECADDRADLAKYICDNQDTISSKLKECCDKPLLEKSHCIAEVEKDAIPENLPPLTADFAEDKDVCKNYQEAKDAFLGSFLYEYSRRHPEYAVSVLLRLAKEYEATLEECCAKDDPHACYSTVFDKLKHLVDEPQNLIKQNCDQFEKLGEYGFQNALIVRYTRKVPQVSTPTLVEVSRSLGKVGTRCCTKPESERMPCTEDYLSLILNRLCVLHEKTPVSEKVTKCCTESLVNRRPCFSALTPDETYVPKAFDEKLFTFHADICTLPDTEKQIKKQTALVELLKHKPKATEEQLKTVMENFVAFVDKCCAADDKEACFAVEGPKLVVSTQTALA

B1: flagellin FliC, serotype H48, of E. coli K-12 (MG1655) (other)
chain: AQVINTNSLSLITQNNINKNQSALSSSIERLSSGLRINSAKDDAAGQAIANRFTSNIKGLTQAARNANDGISVAQTTEGALSEINNNLQRVRELTVQATTGTNSESDLSSIQDEIKSRLDEIDRVSGQTQFNGVNVLAKNGSMKIQVGANDNQTITIDLKQIDAKTLGLDGFSVKNNDTVTTSAPVTAFGATTTNNIKLTGITLSTEAATDTGGTNPASIEGVYTDNGNDYYAKITGGDNDGKYYAVTVANDGTVTMATGATANATVTDANTTKATTITSGGTPVQIDNTAGSATANLGAVSLVKLQDSKGNDTDTYALKDTNGNLYAADVNETTGAVSVKTITYTDSSGAASSPTAVKLGGDDGKTEVVDIDGKTYDSADLNGGNLQTGLTAGGEALTAVANGKTTDPLKALDDAIASVDKFRSSLGAVQNRLDSAVTNLNNTTTNLSEAQSRIQDADYATEVSNMSKAQIIQQAGNSVLAKANQVPQQVLSLLQG
notes: also called FliCH48; FliC (H48)
binding result: no binding (tested: 10 µg/ml)
